From US20090252748A1 (Biogen, published 2009) come the findings set out here.

One test concerns the target T1, AP-Sp35 (418-498) (Homo sapiens (Human), UniProt Q96FE5 424-504).
T1 sequence: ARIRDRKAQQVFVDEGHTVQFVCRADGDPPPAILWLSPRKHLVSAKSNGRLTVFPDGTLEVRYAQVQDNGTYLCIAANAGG
Briefly: fragment binding.

Test [1] has as its target T2, Sp35 fragment 417-498 human Fc (human, UniProt Q96FE5 423-504).
T2 construct: not shown: Fc, printed 'human Fc'
T2 sequence: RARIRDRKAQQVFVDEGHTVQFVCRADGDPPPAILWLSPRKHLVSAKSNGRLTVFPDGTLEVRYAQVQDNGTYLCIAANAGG
Briefly: fragment binding.

Another test addresses T3, Ig region of Sp35 (Homo sapiens (Human), UniProt Q96FE5 425-499).
T3 sequence: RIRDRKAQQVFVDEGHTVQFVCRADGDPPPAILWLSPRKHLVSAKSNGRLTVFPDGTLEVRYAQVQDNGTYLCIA
As to the kind of experiment: ELISA. How it is done: Ovalbumin and BSA were used as controls. […] The affinity of these latter antibodies for mouse and rat Sp35 was restored to the level seen using human Sp35 when amino acid 419 of the mouse or rat Sp35 is changed from histidine (H) to arginine (R). Arginine is the amino acid at position 419 in human Sp35. […] AP substrate was then developed by 10 mg/ml 4 NPP in 0.1 M Glycine, 1 mM MgCl₂, 1 mM ZnCl₂, pH 10.5, and read at O.D. 405.
In similar experiments, monoclonal antibodies 3B5.2 and 7P1D5.1G9, as well as the Fab fragment of the 7P1D5.1G9 antibody were tested in ELISA assays for their ability to bind human Sp35, the entire LRR region of Sp35, the Ig region of Sp35 and murine Sp35. […] The 3B5.2 and 7P1D5. 1G9 monoclonal antibodies also bound the LRR region of Sp35.
For orientation: An ELISA detects its analyte on a solid surface through an enzyme-linked reagent.

Test [2] has as its target T4, human Sp35 protein expressed on transfected cells (human, UniProt Q96FE5 40-620).
T4 construct: also called huSp35; hLINGO-1
T4 sequence: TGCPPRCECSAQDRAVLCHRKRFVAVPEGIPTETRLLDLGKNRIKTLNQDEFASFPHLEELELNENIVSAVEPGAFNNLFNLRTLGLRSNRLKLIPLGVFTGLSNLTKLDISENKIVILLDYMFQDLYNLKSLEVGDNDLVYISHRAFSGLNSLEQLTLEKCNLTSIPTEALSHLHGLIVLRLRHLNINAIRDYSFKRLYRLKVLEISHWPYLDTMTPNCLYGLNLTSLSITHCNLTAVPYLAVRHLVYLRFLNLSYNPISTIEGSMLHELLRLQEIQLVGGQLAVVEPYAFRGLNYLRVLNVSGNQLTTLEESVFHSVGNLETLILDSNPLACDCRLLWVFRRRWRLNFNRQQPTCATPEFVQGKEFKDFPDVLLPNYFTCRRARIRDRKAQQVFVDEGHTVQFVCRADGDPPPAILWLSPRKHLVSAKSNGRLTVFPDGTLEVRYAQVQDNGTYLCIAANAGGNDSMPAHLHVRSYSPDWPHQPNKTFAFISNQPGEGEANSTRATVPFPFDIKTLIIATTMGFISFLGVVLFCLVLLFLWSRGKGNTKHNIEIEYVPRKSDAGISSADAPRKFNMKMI
As to the kind of experiment: FACS direct binding, CHO cells stably transfected with human Sp35 (LINGO-1), mean fluorescence (MCF) against antibody concentration [panel Human]. As for the experimental part: (§1) In similar experiments, CHO cells stably transfected with Sp35 were used in FACS analysis to further characterize the binding properties of 3B5.2 and 7P1D5.1G9. […] Specifically, the 3B5.2 and 7P1D5.1G9 antibodies were tested for their ability to bind CHO cells transfected with, and expressing, human or murine Sp35. […] Additionally, the 3B5.2 antibody bound more cells as measured by the mean fluorescence (MCF) than 7P1D5.1G9.

Test [3] concerns the target T5, mouse Sp35 protein expressed on transfected cells (mouse, UniProt Q9D1T0 36-614).
T5 construct: whole, on cells; also called mSp35; mLINGO-1
T5 sequence (looked up): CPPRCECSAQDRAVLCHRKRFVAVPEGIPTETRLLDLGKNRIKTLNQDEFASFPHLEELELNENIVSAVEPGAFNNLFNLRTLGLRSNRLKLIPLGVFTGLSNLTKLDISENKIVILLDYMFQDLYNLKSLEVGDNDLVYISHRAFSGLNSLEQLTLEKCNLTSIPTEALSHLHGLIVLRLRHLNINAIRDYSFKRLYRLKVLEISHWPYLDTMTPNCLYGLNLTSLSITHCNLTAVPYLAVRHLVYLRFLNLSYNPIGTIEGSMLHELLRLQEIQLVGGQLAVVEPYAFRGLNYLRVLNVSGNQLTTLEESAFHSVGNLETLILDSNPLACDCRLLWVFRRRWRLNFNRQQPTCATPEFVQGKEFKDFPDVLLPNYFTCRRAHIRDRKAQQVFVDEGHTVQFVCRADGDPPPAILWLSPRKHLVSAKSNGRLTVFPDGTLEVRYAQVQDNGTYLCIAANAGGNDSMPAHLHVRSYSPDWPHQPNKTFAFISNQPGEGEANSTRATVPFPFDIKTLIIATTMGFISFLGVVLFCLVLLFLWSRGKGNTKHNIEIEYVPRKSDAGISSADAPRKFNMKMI
Briefly: FACS direct binding, CHO cells stably transfected with murine Sp35 (LINGO-1), mean fluorescence (MCF) against antibody concentration [panel Murine]. As for the experimental part:
as §1

B1: D06 (full-length antibody with the Li06 variable region) (antibody, V domains shown)
VH: EVQLLESGGGLVQPGGSLRLSCAASGFTFSEYPMDWVRQAPGKGLEWVSSIYSSGGSTVYADSIKGRFTISRDNSKNTLYLQMNSLRAEDTAVYYCAREGDSDAFDIWGQGTMVTVSS
VL: DIQMTQSPSTLSASVGDRVTITCRASQSISSWLAWYQQKPGKAPNLLIYAASSLRTGVPSRFRGSGSGTDFTLTISSLQPEDFATYYCLQDYSYPLTFGQGTKLEIK
notes: also called 34-F02 (Dli06) Ab
Regarding B1, the binding result with AP-Sp35 (418-498) is “no binding”.

B2: D13 (full-length antibody with the Li13 variable region) (antibody, V domains shown)
VH: EVQLLESGGGLVQPGGSLRLSCAASGFTFSHYEMYWVRQAPGKGLEWVSRIVSSGGFTKYADSVKGRFTISRDNSKNTLYLQMNSLRAEDTAVYYCATEGDNDAFDIWGQGTTVTVSS
VL: DIQMTQSPATLSLSPGERATLSCRASQSVSSYLAWYQQKPGQAPRLLIYDASNRATGIPARFSGSGSGTDFTLTISSLEPEDFAVYYCQQRSNWPMYTFGQGTKLEIK
notes: also called 72-D03 (Dli13) Ab
In the case of B2, the binding result in test [1] is reported as “no binding”.

B3: 3B5.2 monoclonal antibody (ATCC PTA-8106) (antibody, mouse IgG1, V domains shown)
VH: QVQLQQPGAELVRPGTSVKLSCRASGYTFTSYWMHWVKQRPGQGLEWIGVIDPSDSYTNYNQKFRGKATLTVDTSSSTAYMQLSSLTSEDSAVYYCARPYYGSHWFFDVWGTGTTVTVSS
VL: QIVLTQSPAIMSASPGEKVTMTCSASSRVSYVHWYQQKSGTSPKRWLYDTSNLASGVPARFGGNGSGTSYSLTISSMEAEDAATYYCQQWSTNPPTFGGGTKLEIK
modifications: N-linked glycosylation site in FR3 (appears glycosylated)
notes: murine IgG1/kappa; also called 2.P3B5.2
By EC50 (read off the curve) is commonly meant the concentration at which the effect is half-maximal. A lower EC50 (read off the curve) goes with greater potency. Consider B3, for which, in the test with Ig region of Sp35, the binding result is “no binding”. Moreover, the “EC50 (read off the curve)” value in test [2] and in test [3] was around 0.4 nM each time.
